Assay [1] deals with T1, rat calcitonin receptor (rat, UniProt P32214 25-516).
T1 construct: whole, on cells; Membranes of transiently transfected BHK tk'ts 13 cells (Assay VIII); also called rCTR
T1 sequence (looked up): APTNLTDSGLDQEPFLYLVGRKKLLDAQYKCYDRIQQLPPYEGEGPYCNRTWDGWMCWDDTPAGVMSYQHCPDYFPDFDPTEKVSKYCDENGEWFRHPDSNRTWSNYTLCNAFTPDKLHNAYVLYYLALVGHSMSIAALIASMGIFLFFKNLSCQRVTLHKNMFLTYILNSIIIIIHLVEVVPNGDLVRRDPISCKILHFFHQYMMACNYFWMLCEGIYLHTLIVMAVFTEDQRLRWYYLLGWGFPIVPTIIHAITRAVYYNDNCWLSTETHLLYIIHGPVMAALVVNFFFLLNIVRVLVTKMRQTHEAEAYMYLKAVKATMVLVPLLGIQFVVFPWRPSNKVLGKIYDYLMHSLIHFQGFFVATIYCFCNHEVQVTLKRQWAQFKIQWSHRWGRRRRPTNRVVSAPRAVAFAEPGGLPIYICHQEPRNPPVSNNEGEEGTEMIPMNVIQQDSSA
Briefly: ratio IC50 rat calcitonin receptor / IC50 rat amylin receptor (reference).

The target of assay [2] is T2, human calcitonin receptor (human, UniProt P30988 25-474).
T2 construct: whole, on cells; Membranes of a stably transfected BHK cell line (Assay VII); also called hCTR; hCT
T2 sequence (looked up): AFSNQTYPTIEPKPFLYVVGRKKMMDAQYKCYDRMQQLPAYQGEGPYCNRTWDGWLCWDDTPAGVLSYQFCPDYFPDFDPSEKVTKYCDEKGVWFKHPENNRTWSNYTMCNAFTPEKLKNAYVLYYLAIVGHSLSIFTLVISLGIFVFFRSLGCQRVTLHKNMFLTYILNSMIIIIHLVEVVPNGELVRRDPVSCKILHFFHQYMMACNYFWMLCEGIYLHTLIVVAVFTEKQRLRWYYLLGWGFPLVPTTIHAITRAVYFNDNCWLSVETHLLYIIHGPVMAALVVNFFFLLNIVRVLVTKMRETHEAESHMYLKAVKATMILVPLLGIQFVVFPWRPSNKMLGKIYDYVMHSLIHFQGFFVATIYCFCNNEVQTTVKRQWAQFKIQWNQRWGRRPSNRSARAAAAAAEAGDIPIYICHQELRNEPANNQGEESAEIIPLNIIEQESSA
The assay can be described thus: ratio IC50 human calcitonin receptor / IC50 human amylin receptor (reference). The procedure, abridged: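 Competition binding by SPA with cell membranes (35 ng/μL) and SPA beads in 50 mM Hepes pH 7.4 with 1 mM CaCl2, 5 mM MgCl2, 0.1% OA and 0.02% Tween20. Incubated 120 min at 25 °C with shaking, then counted.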

Assay [3] concerns the target T1, rat calcitonin receptor. Briefly: SPA competition with 125I-calcitonin, membranes of BHK cells with rat calcitonin receptor (Assay VIII).
The target of assay [4] is T3, rat amylin receptor (rat calcitonin receptor + rat RAMP 3) (rat, UniProt P32214 25-516; Q9JJ73 23-147).
T3 construct: whole, on cells; Membranes of transiently transfected BHK tk'ts 13 cells (Assay VI); also called rAmylin-R; rat amylin 3(a) receptor
T3 sequence (looked up) 1: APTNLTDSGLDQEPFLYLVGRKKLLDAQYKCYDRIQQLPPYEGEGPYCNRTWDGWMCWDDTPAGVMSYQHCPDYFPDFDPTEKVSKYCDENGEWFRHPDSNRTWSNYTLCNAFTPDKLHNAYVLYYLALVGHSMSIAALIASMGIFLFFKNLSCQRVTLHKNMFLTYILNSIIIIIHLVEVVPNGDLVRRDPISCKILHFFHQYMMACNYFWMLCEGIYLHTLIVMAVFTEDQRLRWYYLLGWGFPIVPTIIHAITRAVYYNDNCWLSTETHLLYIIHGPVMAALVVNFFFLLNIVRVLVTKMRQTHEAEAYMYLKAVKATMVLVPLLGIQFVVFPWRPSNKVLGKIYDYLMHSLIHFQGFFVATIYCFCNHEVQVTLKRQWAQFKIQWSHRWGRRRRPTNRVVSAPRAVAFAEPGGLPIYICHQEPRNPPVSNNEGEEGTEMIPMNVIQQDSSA
T3 sequence (looked up) 2: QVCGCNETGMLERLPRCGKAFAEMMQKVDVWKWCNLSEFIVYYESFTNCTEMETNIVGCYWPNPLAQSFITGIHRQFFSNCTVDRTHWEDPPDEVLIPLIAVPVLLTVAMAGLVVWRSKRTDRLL
Briefly: SPA competition with 125I-rat amylin, membranes of BHK cells with rat calcitonin receptor + rat RAMP3 (Assay VI).

Numbered stars: 1 amine (or outer) side, 2 acyl side, 3 side chain; on linkers, the order of the positions; unused ones are H or OH. Bridge positions count the residues as written; N and C are the ends. Side chains are listed from the residue outwards. Ends that are not written are not given here. * marks the point of attachment. C20 diacid = O=C(O)CCCCCCCCCCCCCCCCCCC(=O)*; γGlu = O=C(O)[C@H](CCC(=O)[*:2])N[*:1]

B1: N^ε1-[(4S)-4-carboxy-4-(19-carboxynonadecanoylamino)butanoyl]-[Glu14,Arg17,Pro21,Pro27,Pro34,Glu35]-h-amylin (peptide)
peptide: K([γGlu-C20 diacid])CNTATCATQRLAEFLRHSSPNFGAIPSSTNVGPETY-NH2
modifications: disulfide 2-7; N-terminus assumed
SMILES: CC[C@H](C)[C@H](NC(=O)[C@H](C)NC(=O)CNC(=O)[C@H](Cc1ccccc1)NC(=O)[C@H](CC(N)=O)NC(=O)[C@@H]1CCCN1C(=O)[C@H](CO)NC(=O)[C@H](CO)NC(=O)[C@H](Cc1c[nH]cn1)NC(=O)[C@H](CCCNC(=N)N)NC(=O)[C@H](CC(C)C)NC(=O)[C@H](Cc1ccccc1)NC(=O)[C@H](CCC(=O)O)NC(=O)[C@H](C)NC(=O)[C@H](CC(C)C)NC(=O)[C@H](CCCNC(=N)N)NC(=O)[C@H](CCC(N)=O)NC(=O)[C@@H](NC(=O)[C@H](C)NC(=O)[C@@H]1CSSC[C@H](NC(=O)[C@@H](N)CCCCNC(=O)CC[C@H](NC(=O)CCCCCCCCCCCCCCCCCCC(=O)O)C(=O)O)C(=O)N[C@@H](CC(N)=O)C(=O)N[C@@H]([C@@H](C)O)C(=O)N[C@@H](C)C(=O)N[C@@H]([C@@H](C)O)C(=O)N1)[C@@H](C)O)C(=O)N1CCC[C@H]1C(=O)N[C@@H](CO)C(=O)N[C@@H](CO)C(=O)N[C@H](C(=O)N[C@@H](CC(N)=O)C(=O)N[C@H](C(=O)NCC(=O)N1CCC[C@H]1C(=O)N[C@@H](CCC(=O)O)C(=O)N[C@H](C(=O)N[C@@H](Cc1ccc(O)cc1)C(N)=O)[C@@H](C)O)C(C)C)[C@@H](C)O
As a reminder, the IC50 is the concentration at which inhibition is half-maximal. For B1, in the assay with rat calcitonin receptor [1], the “Ratio rCT/rAmylin binding” value turned out to be 63.2. Besides, in assay [2], the “Ratio hCT/hAmylin binding” value stood at 13.3. Further, the results for the 50% inhibitory concentration (IC50) (with rat calcitonin receptor [3]; in assay [4]) were 10.4 nM and 0.164 nM, respectively.

B2: N^ε1-[(4S)-4-carboxy-4-(19-carboxynonadecanoylamino)butanoyl]-[His14,Arg17,Pro21,Pro27,Pro31,Pro34]-h-amylin (peptide)
peptide: K([γGlu-C20 diacid])CNTATCATQRLAHFLRHSSPNFGAIPSSTPVGPNTY-NH2
modifications: disulfide 2-7; N-terminus assumed
SMILES: CC[C@H](C)[C@H](NC(=O)[C@H](C)NC(=O)CNC(=O)[C@H](Cc1ccccc1)NC(=O)[C@H](CC(N)=O)NC(=O)[C@@H]1CCCN1C(=O)[C@H](CO)NC(=O)[C@H](CO)NC(=O)[C@H](Cc1c[nH]cn1)NC(=O)[C@H](CCCNC(=N)N)NC(=O)[C@H](CC(C)C)NC(=O)[C@H](Cc1ccccc1)NC(=O)[C@H](Cc1c[nH]cn1)NC(=O)[C@H](C)NC(=O)[C@H](CC(C)C)NC(=O)[C@H](CCCNC(=N)N)NC(=O)[C@H](CCC(N)=O)NC(=O)[C@@H](NC(=O)[C@H](C)NC(=O)[C@@H]1CSSC[C@H](NC(=O)[C@@H](N)CCCCNC(=O)CC[C@H](NC(=O)CCCCCCCCCCCCCCCCCCC(=O)O)C(=O)O)C(=O)N[C@@H](CC(N)=O)C(=O)N[C@@H]([C@@H](C)O)C(=O)N[C@@H](C)C(=O)N[C@@H]([C@@H](C)O)C(=O)N1)[C@@H](C)O)C(=O)N1CCC[C@H]1C(=O)N[C@@H](CO)C(=O)N[C@@H](CO)C(=O)N[C@H](C(=O)N1CCC[C@H]1C(=O)N[C@H](C(=O)NCC(=O)N1CCC[C@H]1C(=O)N[C@@H](CC(N)=O)C(=O)N[C@H](C(=O)N[C@@H](Cc1ccc(O)cc1)C(N)=O)[C@@H](C)O)C(C)C)[C@@H](C)O
Take B2: the “Ratio rCT/rAmylin binding” value in the assay with rat calcitonin receptor [1] was determined as 72.4. Moreover, the “Ratio hCT/hAmylin binding” value in assay [2] is 24.8. Also, the values for the IC50 (with rat calcitonin receptor [3]; in assay [4]) were 9.05 nM and 0.125 nM, respectively.

B3: N^ε1-[(4S)-4-carboxy-4-(19-carboxynonadecanoylamino)butanoyl]-[His14,Arg17,Pro21,Pro27,Arg34]-h-amylin (peptide)
peptide: K([γGlu-C20 diacid])CNTATCATQRLAHFLRHSSPNFGAIPSSTNVGRNTY-NH2
modifications: disulfide 2-7; N-terminus assumed
SMILES: CC[C@H](C)[C@H](NC(=O)[C@H](C)NC(=O)CNC(=O)[C@H](Cc1ccccc1)NC(=O)[C@H](CC(N)=O)NC(=O)[C@@H]1CCCN1C(=O)[C@H](CO)NC(=O)[C@H](CO)NC(=O)[C@H](Cc1c[nH]cn1)NC(=O)[C@H](CCCNC(=N)N)NC(=O)[C@H](CC(C)C)NC(=O)[C@H](Cc1ccccc1)NC(=O)[C@H](Cc1c[nH]cn1)NC(=O)[C@H](C)NC(=O)[C@H](CC(C)C)NC(=O)[C@H](CCCNC(=N)N)NC(=O)[C@H](CCC(N)=O)NC(=O)[C@@H](NC(=O)[C@H](C)NC(=O)[C@@H]1CSSC[C@H](NC(=O)[C@@H](N)CCCCNC(=O)CC[C@H](NC(=O)CCCCCCCCCCCCCCCCCCC(=O)O)C(=O)O)C(=O)N[C@@H](CC(N)=O)C(=O)N[C@@H]([C@@H](C)O)C(=O)N[C@@H](C)C(=O)N[C@@H]([C@@H](C)O)C(=O)N1)[C@@H](C)O)C(=O)N1CCC[C@H]1C(=O)N[C@@H](CO)C(=O)N[C@@H](CO)C(=O)N[C@H](C(=O)N[C@@H](CC(N)=O)C(=O)N[C@H](C(=O)NCC(=O)N[C@@H](CCCNC(=N)N)C(=O)N[C@@H](CC(N)=O)C(=O)N[C@H](C(=O)N[C@@H](Cc1ccc(O)cc1)C(N)=O)[C@@H](C)O)C(C)C)[C@@H](C)O
notes: also called compound 85
Take B3: the “Ratio rCT/rAmylin binding” value in the assay with rat calcitonin receptor [1] came to 46.5. Besides, the “Ratio hCT/hAmylin binding” value in assay [2] came out at 91.8. For the same molecule, the IC50 was 146 nM with rat calcitonin receptor [3] and 3.14 nM in assay [4].

B4: N^ε1-[(4S)-4-carboxy-4-(19-carboxynonadecanoylamino)butanoyl]-[Glu14,Arg17,Pro21,Pro27,Pro34,His35]-h-amylin (peptide)
peptide: K([γGlu-C20 diacid])CNTATCATQRLAEFLRHSSPNFGAIPSSTNVGPHTY-NH2
modifications: disulfide 2-7
As for B4, the “Ratio rCT/rAmylin binding” value with rat calcitonin receptor [1] came to 52.2. For the same molecule, the “Ratio hCT/hAmylin binding” value in assay [2] was found to be 21.2. Also, the IC50 in the assay with rat calcitonin receptor [3] worked out at 5.43 nM; in assay [4] it was 0.104 nM.

B5: N^ε1-[(4S)-4-carboxy-4-(19-carboxynonadecanoylamino)butanoyl]-[Glu14,Arg17,Pro21,Pro27,Pro34,Pro37]-h-amylin (peptide)
peptide: K([γGlu-C20 diacid])CNTATCATQRLAEFLRHSSPNFGAIPSSTNVGPNTP-NH2
modifications: disulfide 2-7; N-terminus assumed
SMILES: CC[C@H](C)[C@H](NC(=O)[C@H](C)NC(=O)CNC(=O)[C@H](Cc1ccccc1)NC(=O)[C@H](CC(N)=O)NC(=O)[C@@H]1CCCN1C(=O)[C@H](CO)NC(=O)[C@H](CO)NC(=O)[C@H](Cc1c[nH]cn1)NC(=O)[C@H](CCCNC(=N)N)NC(=O)[C@H](CC(C)C)NC(=O)[C@H](Cc1ccccc1)NC(=O)[C@H](CCC(=O)O)NC(=O)[C@H](C)NC(=O)[C@H](CC(C)C)NC(=O)[C@H](CCCNC(=N)N)NC(=O)[C@H](CCC(N)=O)NC(=O)[C@@H](NC(=O)[C@H](C)NC(=O)[C@@H]1CSSC[C@H](NC(=O)[C@@H](N)CCCCNC(=O)CC[C@H](NC(=O)CCCCCCCCCCCCCCCCCCC(=O)O)C(=O)O)C(=O)N[C@@H](CC(N)=O)C(=O)N[C@@H]([C@@H](C)O)C(=O)N[C@@H](C)C(=O)N[C@@H]([C@@H](C)O)C(=O)N1)[C@@H](C)O)C(=O)N1CCC[C@H]1C(=O)N[C@@H](CO)C(=O)N[C@@H](CO)C(=O)N[C@H](C(=O)N[C@@H](CC(N)=O)C(=O)N[C@H](C(=O)NCC(=O)N1CCC[C@H]1C(=O)N[C@@H](CC(N)=O)C(=O)N[C@H](C(=O)N1CCC[C@H]1C(N)=O)[C@@H](C)O)C(C)C)[C@@H](C)O
Consider B5, for which the “Ratio rCT/rAmylin binding” value with rat calcitonin receptor [1] was determined as 1.1. In assay [2], the “Ratio hCT/hAmylin binding” value was 0.5. The 50% inhibitory concentration (IC50) was 0.206 nM with rat calcitonin receptor [3] and 0.188 nM in assay [4].

These data come from US20140087995A1 (published 2014).
